In one test the target is human CTLA-4 (human) (UniProt P16410). Kind of test: flow cytometry, transfected cells.
For a further test, the target named is human PD-L1 (human) (UniProt Q9NZQ7). Put plainly: flow cytometry, transfected cells. In general terms: In flow cytometry, cells or beads pass a laser one at a time.
In test [1] the target is human PD-L1, full-length, expressed on transfected Expi293F cells (human) (UniProt Q9NZQ7). Kind of test: flow cytometry, PD-L1-transfected Expi293 cells.
For test [2] the target is unchanged. Put plainly: flow cytometry, PD-L1-transfected cells; MFI over WT CD80 ECD-Fc.
Test [3] concerns the target human CD28 (human) (UniProt P10747). Kind of test: flow cytometry on transfected cells.
The target is the same in test [4]. Kind of test: flow cytometry; ratio to WT stack m3.

Chain of UniProt P16410 (P16410 36-223): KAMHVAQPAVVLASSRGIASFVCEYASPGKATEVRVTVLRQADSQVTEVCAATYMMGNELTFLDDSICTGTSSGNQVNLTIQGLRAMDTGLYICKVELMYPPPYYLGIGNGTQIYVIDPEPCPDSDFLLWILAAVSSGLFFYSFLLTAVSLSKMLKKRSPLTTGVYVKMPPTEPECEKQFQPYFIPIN

As for “variant CD80 ECD-Fc H18L/R29D/Y31L/Q33H/K36G/M38I/T41A/M43R/M47T/E81V/L85R/K89N/A91T/F92P/K93V/R94L/L97R/T130A/N149S (Fc fusion)”, the MFI in the test with human CTLA-4 (human) amounted to 2180; with human PD-L1 (human) it was 100000.

In test [1], variant CD80 ECD-Fc fusion A91G/S103P returned an MFI of 9 MFI.

Consider “variant CD80 ECD-Fc fusion V20L/L70Q/A91S/I118V/T120S/T130A”, for which the MFI in test [1] was determined as 9 MFI. Also, in test [2], the MFI parental ratio came to 0.13.

B1: Domain 1: CD80 I67T/L70Q/A91G/T120S / Domain 2: CD80 E88D/K89R/D90K/A91G/F92Y/K93R / Fc (Fc fusion)
chain: VIHVTKEVKEVATLSCGHNVSVEELAQTRIYWQKEKKMVLTMMSGDMNIWPEYKNRTIFDITNNLSTVIQALRPSDEGTYECVVLKYEKDGFKREHLAEVTLSVKADFPTPSISDFEIPGGGGSGGGGSGGGGSVIHVTKEVKEVATLSCGHNVSVEELAQTRIYWQKEKKMVLTMMSGDMNIWPEYKNRTIFDITNNLSIVILALRPSDEGTYECVVLKYDRKGYRREHLAEVTLSVKADFPTPSISDFEIPGGGGSGGGGSAAAEPKSSDKTHTCPPCPAPELLGGPSVFLFPPKPKDTLMISRTPEVTCVVVDVSHEDPEVKFNWYVDGVEVHNAKTKPCEEQYGSTYRCVSVLTVLHQDWLNGKEYKCKVSNKALPAPIEKTISKAKGQPREPQVYTLPPSREEMTKNQVSLTCLVKGFYPSDIAVEWESNGQPENNYKTTPPVLDSDGSFFLYSKLTVDKSRWQQGNVFSCSVMHEALHNHYTQKSLSLSPGK
Molecule B1 came in with an MFI with human CD28 (human) [3] of 938 MFI. Moreover, the WT parental MFI ratio with human CD28 (human) [4] is 0.57.

The values above are taken from patent US20230136723A1.
